From the supplement of paper PMC9732359
± gives the uncertainty stated by the source.

Test: protein stability index of a GFP-peptide fusion (yeast GPS) (PSI 1-4); higher = more stable; sorted into four equal gates, so the index is relative within each strain
Conditions: ubr1∆
How it was run: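 Yeast carrying a pooled library were grown to mid-log phase in leucine-free medium. Each library plasmid expresses Cherry and has a tiled 17-residue yeast protein peptide fused downstream of GFP. Cells were sorted into four equal gates by GFP/Cherry ratio, and plasmids from each gate were PCR-amplified, Illumina-sequenced and assigned to strains by barcode. Summing, across gates, the read frequency times the gate number gave each peptide's protein stability index.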

KDLFELERYYKEQADIY [ARP7] and KDLQWLEFARITPMNDD [SIN4] are within error of each other in protein stability index: 3.41 ± 0.067 for the first, 3.33 ± 0.097 for the second.

First: KDQYVPEVSALDLSRSN [RPS17A]
Second: KDTPFTIYDGEAVAKYI [PRE5]
The protein stability index of the first is lower: 2.2 ± 0.065 for the first, 3.12 ± 0.05 for the second.

KEASQEDDNNNVEKPSS [YLR335W/NUP2] and KEDSTIQDSNGDVKNME [SWI3] are within error of each other in protein stability index: 3.18 ± 0.066 for the first, 3.17 ± 0.058 for the second.

KEEISDQKPIEHIKEGS [SWI3] and KEHAPYTDELEEDVYLD [FAS2] are within error of each other in protein stability index: 3 ± 0.04 for the first, 3.04 ± 0.26 for the second.

KEHEPCIIFMDEVDAIG [RPT4] and KEIKTNEYVIKTPVFTT [YMR129W/POM152] are within error of each other in protein stability index: 1.98 ± 0.072 for the first, 1.94 ± 0.042 for the second.

KEISARRYKLLTATPNS [POP1] and KEKAPTIIFIDELDAIG [RPT5] are within error of each other in protein stability index: 2.5 ± 0.051 for the first, 2.4 ± 0.052 for the second.

Compared with KEKIEKLSKSATESIKN [SMC1], KEKLTVQDCRYSLASVT [POP1] is lower in protein stability index: 3.07 ± 0.072 for the first, 2.46 ± 0.035 for the second.

Going from KEPVALIETVRQMKDVN [RPN2] to KERSIVVGRTTRSNPPF [REC8], the protein stability index falls from 3.31 ± 0.041 to 2.65 ± 0.065.

Compared with KESIVLPTVGFDFIKDN [YOR098C/NUP1], KESPWKILMYQYNIPPE [RRP6] is lower in protein stability index: 2.83 ± 0.07 for the first, 1.57 ± 0.055 for the second.

First: KETAPVIDTLAAGYGKI [RPL28]
Second: KETVEIGIVDYEAGASH [FAS1]
The protein stability index of the first is lower: 2.53 ± 0.083 for the first, 3.06 ± 0.14 for the second.

Compared with KETWLHELSSSHTSLVK [SRB8], KFLQVMQKHGYIGEFEY [RPS22A] is higher in protein stability index: 1.8 ± 0.055 for the first, 2.6 ± 0.054 for the second.

Compared with KFNAAPEENATEGPSDK [SNF12], KFNELVKLMKNITDYET [BRR2] is lower in protein stability index: 3.26 ± 0.098 for the first, 1.3 ± 0.056 for the second.

KFQETLLRQKIEQCKHP [ISW2] and KGAATGKGRQSAKAELE [PRE10] are within error of each other in protein stability index: 1.21 ± 0.063 for the first, 1.22 ± 0.064 for the second.

Going from KGDLRRGFIKSEGSGSS [RPC53] to KGEEAKLDSKKTVPFQV [SSN3], the protein stability index falls from 3.48 ± 0.15 to 3.23 ± 0.066.

KGEMKGSAITGPVGKEC [RPL23A] and KGIDSVVRRRFRGNISQ [RPL32] are within error of each other in protein stability index: 3 ± 0.044 for the first, 2.89 ± 0.12 for the second.

KGKTPKNAAESSYMGKH [PRP28] and KGLIKVNGSPITLVEPE [RPS16A] are within error of each other in protein stability index: 3.33 ± 0.085 for the first, 3.24 ± 0.11 for the second.

First: KGLVSQQLDSFNQFVDY [RPB2]
Second: KHEEIDTKNLYVIKALQ [RPS10A]
The protein stability index of the first is higher: 2.6 ± 0.066 for the first, 1.46 ± 0.077 for the second.

First: KHLWDQKSLAALKKSRS [RPC17]
Second: KIAHGTTTLAFRFQGGI [PRE2]
The protein stability index of the first is lower: 2.81 ± 0.07 for the first, 3.1 ± 0.069 for the second.

KIDKPIRTQVNTGGESV [RGR1] and KIDSHVVLSFSGLNADS [PRE6] are within error of each other in protein stability index: 2.25 ± 0.036 for the first, 2.19 ± 0.054 for the second.

Going from KIESLAGGGESDSALIL [UBP6] to KIHQQLLFKARLQQQQA [GAL11], the protein stability index falls from 3.12 ± 0.25 to 1.33 ± 0.069.

Going from KIIELMNKIFTIFKSGE [YML103C/NUP188] to KILEQFEYVLYPSKTLK [FAS2], the protein stability index rises from 2.8 ± 0.12 to 3.15 ± 0.064.

First: KILPTDIQLKNLFPLKP [SRP68]
Second: KINSWDQVLVKGGEQIS [YJL041W/NSP1]
The protein stability index of the first is higher: 2.53 ± 0.059 for the first, 2.21 ± 0.073 for the second.

First: KIPAVEYFGGESPVDVQ [FAS1]
Second: KIRRAARDLLTRDEKDP [RPS9A]
The protein stability index of the first is higher: 3.09 ± 0.092 for the first, 2.58 ± 0.078 for the second.

Going from KISEGSAKPTFSFSKSE [YOR098C/NUP1] to KISFNLRLKLFLYEILS [SRB8], the protein stability index falls from 1.77 ± 0.11 to 1.17 ± 0.048.

Going from KIVEIDRHIGCAMSGLT [PUP2] to KIWSVKDGSNPRTLIGH [RPN14], the protein stability index rises from 2.17 ± 0.06 to 2.96 ± 0.12.

First: KKAEKAARKAEKAKSAG [RPL24A]
Second: KKAVKELYEVDVLKVNT [RPL25]
The protein stability index of the first is higher: 3.48 ± 0.055 for the first, 3.13 ± 0.049 for the second.

Going from KKDSKPAFSFGISNGSE [YLR335W/NUP2] to KKGESEKDASGKPSFVF [YOR098C/NUP1], the protein stability index falls from 3.15 ± 0.058 to 2.23 ± 0.073.

KKINAKEKLIGWYHSGP [RPN8] and KKISSFKSLIDEDLLDT [YGL172W/NUP49] are within error of each other in protein stability index: 3.13 ± 0.06 for the first, 3.14 ± 0.063 for the second.

First: KKLEITSDGALSVMCGC [RPR2]
Second: KKRFDEFMAGFNIISMT [SMC4]
The protein stability index of the first is higher: 2.933 ± 0.029 for the first, 2.14 ± 0.072 for the second.

Compared with KKSKNGTISKTGKKNKV [SRP14], KKSKRLDKVGKKKGGKK [LRP1] is lower in protein stability index: 3.51 ± 0.057 for the first, 3.24 ± 0.21 for the second.

Compared with KKTRIIPRHLQLAIRND [HTA1], KKVGITGKYGVRYGSSL [RPL43A] is higher in protein stability index: 2.05 ± 0.081 for the first, 3.15 ± 0.033 for the second.

First: KKYSSKNKYGEINSEDY [SRP68]
Second: KKYTQNNPLLLIVDVKQ [RPN8]
The protein stability index of the first is higher: 3.14 ± 0.053 for the first, 1.16 ± 0.048 for the second.

Going from KLANFFSKKGNEPLSEI [YAR002W/NUP60] to KLCYVLGVEDITLIDSA [RET1], the protein stability index falls from 3.13 ± 0.099 to 1.74 ± 0.07.

Compared with KLEAEEIPSEDQNEFLL [FAS2], KLELINRYAYVLSSLMF [LRP1] is lower in protein stability index: 3.51 ± 0.16 for the first, 2.65 ± 0.046 for the second.

Going from KLEYPHTDVSSSLEARY [RPN3] to KLFTTNELMRWPIVQKT [RPN5], the protein stability index falls from 2.9 ± 0.086 to 1.48 ± 0.044.

Compared with KLHVAAKLPGHKSLIRS [YGL100W/SEH1], KLISAFDDLEVEELPTF [RRP42] is higher in protein stability index: 2.33 ± 0.094 for the first, 2.85 ± 0.036 for the second.

First: KLKDSKKLFQKKENLTR [YML103C/NUP188]
Second: KLLDSGCENPADVFRRC [SRP72]
The protein stability index of the first is higher: 3.25 ± 0.1 for the first, 2.16 ± 0.071 for the second.

Going from KLLKSLKNTKYFQQTTI [PRP8] to KLNDSQRKTVNSDDILS [POP1], the protein stability index rises from 2.59 ± 0.064 to 2.89 ± 0.093.

First: KLNKVDKNELQQMIITR [SIR3]
Second: KLPLSVINVSAQRDRRY [RPS17A]
The protein stability index of the first is higher: 3.23 ± 0.043 for the first, 1.66 ± 0.15 for the second.

KLREKVNDVELAFKKNE [MTW1] and KLRETLVKIDDLSANQR [SMC1] are within error of each other in protein stability index: 3.06 ± 0.21 for the first, 3.09 ± 0.077 for the second.

Compared with KLSESLDTRKELWRKEQ [SMC3], KLTQKLVTAGVAAAGIT [CYT1] is higher in protein stability index: 1.82 ± 0.12 for the first, 2.11 ± 0.052 for the second.

KLVLAARIIAAIPNPED [RPS0A] and KLYDKTENDIKALQSIG [RPT4] are within error of each other in protein stability index: 2.5 ± 0.14 for the first, 2.4 ± 0.22 for the second.

KMDMICRNINRKHRNAQ [DIS3] and KMEKKKSSSLSLESFMK [SNM1] are within error of each other in protein stability index: 3.12 ± 0.12 for the first, 2.97 ± 0.084 for the second.

First: KMPGGFTITVARKYLQT [FAS2]
Second: KNATDLQQAKLRESEIS [SMC3]
The protein stability index of the first is lower: 1.27 ± 0.052 for the first, 2.97 ± 0.068 for the second.

First: KNDEVLGLLLPIAASTD [RPN1]
Second: KNDTHYLLPDDFHFSTD [BRN1]
The protein stability index of the first is lower: 2.6 ± 0.071 for the first, 2.95 ± 0.065 for the second.

Going from KNDTKILVLALEDLKDV [PRP8] to KNEEAEIEVDEMEVDAE [RPN1], the protein stability index rises from 1.73 ± 0.055 to 3.62 ± 0.1.

First: KNEETPQNEKPPAYALL [RPC25]
Second: KNFENGPKKNVFYAPNV [RPC34]
The protein stability index of the first is lower: 2.74 ± 0.24 for the first, 3.14 ± 0.063 for the second.

Going from KNIAQCLSDYTKKISNF [YJL039C/NUP192] to KNISSQLDSKLMVFNDD [YGR119C/NUP57], the protein stability index rises from 1.49 ± 0.036 to 2.08 ± 0.029.

First: KNLNPASSSPSSTDFST [ECM29]
Second: KNMFEKKASKVTVDADI [ISW2]
The protein stability index of the first is higher: 2.91 ± 0.032 for the first, 2.77 ± 0.054 for the second.

Compared with KNSSQLLNEWSHNVDEL [RPN5], KNSSVSSLMNGLGYVFE [SRB5] is lower in protein stability index: 2.64 ± 0.049 for the first, 2.51 ± 0.056 for the second.

Compared with KPHGLAARVDIGQIIFS [RPL10], KPKNTKENLSKSSWRQE [SIR4] is lower in protein stability index: 2.15 ± 0.036 for the first, 1.5 ± 0.049 for the second.

First: KPLGLDRYGNRYFWLDH [ITC1]
Second: KPLGTTRAMEYLKFREL [RPB2]
The protein stability index of the first is lower: 2.74 ± 0.086 for the first, 2.9 ± 0.056 for the second.
